Measured values reported in patent publication US10660951.

How the values were obtained:
[1] = biological target: envelope glycoprotein of HIV-1 HXB2 on pseudotyped virus (HIV-1 HXB2) (UniProt P04578); experiment: cell-based or functional assay
[2] = biological target: envelope of HIV-1 isolate CNE5 on pseudotyped virus (HIV-1 CNE5); experiment: cell-based or functional assay

b12 (antibody) showed an ND50, neutralization of pseudotyped virus (luciferase) [1] of 0.119 µg/mL and an ND50, neutralization of pseudotyped virus (luciferase) [2] of 23.1 µg/mL.
